The values that follow come from patent US20220233638A1 (WASEDA UNIVERSITY, published 2022).

In this assay the target is T1, GST-DLA88-α3 (dog, UniProt P18466 207-299).
T1 construct: also called recombinant protein containing only α3 domain of DLA88; not shown: glutathione S-transferase (GST) tag of expression vector pGEX-6p-1
Nature of the assay: biolayer interferometry (BLItz); GST-DLA88-α3 immobilised on anti-GST sensor, GST-LILRB3 D1/D2 loaded as sample. On the procedure: The recombinant proteins DLA88-α3 and LILRB3-D1/D2 used in (b) were separately incubated at 37° C. for 2 hr, and immobilized on the BLI sensor for 5 min using DLA88-α3 as a ligand. LILRB3-D1/2D was loaded as a sample at the indicated concentrations.
BLItz™ ([…]) was used to analyze the dynamics between DLA88-α3 and LILRB3-D1/D2. A GST sensor and an anti-GST antibody-immobilized sensor ([…]) were used. GST-DLA88-α3 and GST-LILRB3-D1/D2 were separately incubated at 37° C. for 2 hr. GST-DLA88-α3 was immobilized on the GST sensor as a ligand molecule for 5 min and completely covered with the GST sensor. After washing with PBS-T (5% Tween-PBS) for 30 sec, GST-LILRB3 D1/D2 was loaded as a sample while trembling for 2 min. In addition to association kinetics, dissociation kinetics was evaluated in PBS-T buffer for 2 min. The recombinant protein GST-GFP was used as a control.

T1 sequence (P18466 other isoform, or with tags, fused parts or gaps): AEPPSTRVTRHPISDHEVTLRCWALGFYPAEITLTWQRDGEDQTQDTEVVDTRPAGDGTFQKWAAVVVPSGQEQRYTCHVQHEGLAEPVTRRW

B1: GST-LILRB3-D1/D2 (receptor)
chain: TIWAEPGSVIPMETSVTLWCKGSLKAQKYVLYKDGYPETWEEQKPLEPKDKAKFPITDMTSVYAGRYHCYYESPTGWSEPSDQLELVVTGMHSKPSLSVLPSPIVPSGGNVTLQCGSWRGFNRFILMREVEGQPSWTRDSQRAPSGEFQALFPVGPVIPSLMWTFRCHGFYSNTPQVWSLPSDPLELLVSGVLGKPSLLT
notes: also called LILRB3-D1/2D; not shown: glutathione S-transferase (GST) tag of expression vector pGEX-6p-1
Consider B1, for which the affinity, expressed as Kd, was 6.54 µM.
